From PMC9132248

Assays:
Conditions in all cases: glycan lost; control: wild type APP-SNAP
[1] = confocal colocalisation with Golgi marker GRASP65
[2] = Aβ42 ELISA of culture medium (secreted)
[3] = confocal, plasma-membrane share of total APP-SNAP intensity per cell
[4] = confocal, fraction of cells with plasma-membrane APP-SNAP
[5] = confocal imaging, size of APP-SNAP-positive vesicles
[6] = live-cell confocal colocalisation with SiR-lysosome
[7] = Aβ42 ELISA of cell lysate (intracellular)
[8] = Airyscan colocalisation with early endosome marker EEA1

Substance | localisation_or_trafficking [1] | other: proteolytic processing [2] | localisation_or_trafficking [3] | localisation_or_trafficking, other: percent of cells with APP-SNAP in plasma membrane [4] | localisation_or_trafficking [5] | localisation_or_trafficking [6] | other: proteolytic processing [7] | localisation_or_trafficking [8]
amyloid precursor protein (hAPP695-SNAP): N467Q | no change | increases | decreases | decreases, 11.8 vs 35.3 | decreases | decreases | increases | no change
amyloid precursor protein (hAPP695-SNAP): N496Q | no change | increases | decreases | decreases, 9.8 vs 35.3 | decreases | decreases | increases | no change
